From paper PMC3369926, “TRAM Is Involved in IL-18 Signaling and Functions as a Sorting Adaptor for MyD88” (PLoS ONE, 2012) come the findings set out here.

To fix the notation:
B1: TRAM-TIR (amino acid residues 66-235) (domain or fragment, human, UniProt Q86XR7 66-235, looked up)
chain: EEMFEEEAEEEVFLKFVILHAEDDTDEALRVQNLLQDDFGIKPGIIFAEMPCGRQHLQNLDDAVNGSAWTILLLTENFLRDTWCNFQFYTSLMNSVNRQHKYNSVIPMRPLNNPLPRERTPFALQTINALEEESRGFPTQVERIFQESVYKTQQTIWKETRNMVQRQFIA
notes: TRAM (TICAM-2), human, TIR domain, residues 66-235; also called TIR domain of human TRAM; TRAM TIR domain; source: purified; subcloned into a pGEX vector, obtained by a similar procedure as previously described for the MyD88-TIR
B2: GST-IL-18Rα-TIR (amino acid residues 374-541) (domain or fragment, UniProt Q13478 374-541, looked up)
chain: TYDAFVSYLKECRPENGEEHTFAVEILPRVLEKHFGYKLCIFERDVVPGGAVVDEIHSLIEKSRRLIIVLSKSYMSNEVRYELESGLHEALVERKIKIILIEFTPVTDFTFLPQSLKLLKSHRVLKWKADKSLSYNSRFWKNLLYLMPAKTVKPGRDEPEVLPVLSES
notes: IL-18Rα (formerly IL-1Rrp), cytosolic TIR domain, residues 374-541; also called IL-18Rα TIR domain; IL-1Rrp TIR; source: purified as GST fusion protein (pGEX vector), by methods previously described
B3: GST-MyD88-TIR (wild type, amino acid residues 148-296) (domain or fragment, UniProt Q99836 148-296, looked up)
chain: TTLDDPLGHMPERFDAFICYCPSDIQFVQEMIRQLEQTNYRLKLCVSDRDVLPGTCVWSIASELIEKRCRRMVVVVSDDYLQSKECDFQTKFALSLSPGAHQKRLIPIKYKAMKKEFPSILRFITVCDYTNPCTKSWFWTRLAKALSLP
notes: MyD88, TIR domain, amino acid residues 148-296; also called wild-type MyD88-TIR; MyD88 TIR domain; source: purified as GST fusion protein (pGEX vector), by methods previously described
B4: GST-MyD88-TIR R196A (148-296) (domain or fragment, UniProt Q99836 148-296, looked up)
chain: B3 chain with R49A
notes: MyD88, TIR domain, residues 148-296, with R196A; also called Site II mutant R196A; source: purified as GST fusion protein (pGEX vector), by methods previously described
B5: GST-MyD88-TIR R288A (148-296) (domain or fragment, UniProt Q99836 148-296, looked up)
chain: B3 chain with R141A
notes: MyD88, TIR domain, residues 148-296, with R288A; also called Site III mutant R288A; source: purified as GST fusion protein (pGEX vector), by methods previously described
B6: GST-MyD88-TIR R217A (148-296) (domain or fragment, UniProt Q99836 148-296, looked up)
chain: B3 chain with R70A
notes: MyD88, TIR domain, residues 148-296, with R217A; also called Site I mutant R217A; source: purified as GST fusion protein (pGEX vector), by methods previously described

Where a chain is given by its changes, count along the chain named. In names and notes the source's numbering stands.

In test [1] the target is T1, GST-IL-18Rβ-TIR (amino acid residues 407-599) (UniProt O95256 407-599).
T1 construct: IL-18Rβ (formerly IL-1AcPL), cytosolic TIR domain, residues 407-599; also called IL-18Rβ TIR domain; IL-1AcPL TIR; source: purified as GST fusion protein (pGEX vector), by methods previously described
T1 sequence (looked up): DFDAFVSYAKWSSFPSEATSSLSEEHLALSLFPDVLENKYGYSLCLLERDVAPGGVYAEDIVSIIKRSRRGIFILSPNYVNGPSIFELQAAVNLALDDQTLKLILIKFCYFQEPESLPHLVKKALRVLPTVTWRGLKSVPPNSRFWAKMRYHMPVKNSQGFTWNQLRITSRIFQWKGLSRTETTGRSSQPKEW
Kind of test: pull-down; GST fusion proteins held on Glutathione Sepharose 4B, three hours at 4°C; four washes with 20 mM potassium phosphate (pH 6.0), 100 mM KCl, 0.1 mM EDTA, 10 mM DTT, 0.5% Triton X100; SDS-PAGE with Coomassie staining; in triplicate. As to conditions: both partners purified.

The target of test [2] is B1. The description is as above. The note with it: both partners purified.

For the molecule B1, the binding result in test [1] is reported as “binds”.
B2: the binding result in test [2] was “binds”.
Take B3: the binding result in test [2] was “binds”.
Regarding B4, the binding result in test [2] is reported as “binds”.
As for B5, in test [2], the binding result is listed as “binds”.
For the molecule B6, the binding result in test [2] is recorded as “binds”.
